B1: Capzb intron WT transcript with adapters (ssRNA)
RNA: AGUUGUACAGUCCGACGAUGCGGUGGCCUUCUCCUGUCUCUGCCUUUGCCCACGGCUGCCAGGUUCUUGUUCGGCAUUGCUGUUGCUCUCUUGCUGUGGCUUCACCCUCUCUGAACACUCUCUGUAGUGCAGUCGUCGAGUGUCAACG

Experiments:
PTBP1 (GST-SBP-PTBP1) [1] = biological target: T1, PTBP1 (GST-SBP-PTBP1) (UniProt P26599-1 1-531); test: fluorescence polarization
PTBP1 (GST-SBP-PTBP1) [2] = biological target: T1, PTBP1 (GST-SBP-PTBP1); test: bead pull-down with RT-qPCR

Binder	Kd (PTBP1 (GST-SBP-PTBP1) [1]) [nM]	binding result (PTBP1 (GST-SBP-PTBP1) [2])
CUCUCUCUCUCUCUCUC (ssRNA) [Fnbp1 intron oligo]	~2	
CUCUCUGAACACUCUCU (ssRNA) [Capzb intron oligo]	~3	
B1		binds
CUUUCUCUCAAGCU (ssRNA) [Fnbp1 exon oligo]	~8	
AUCUCUUGAUGCUAUCC (ssRNA) [Capzb exon oligo]	~6	
